Measured values published in US20190328788A1 (GENAGON THERAPEUTICS, published 2019).
Ends that are not written are not given here.

T1: transforming growth factor-beta 2 (TGF-β2) (UniProt P61812 303-414)
T1 construct: also called TGFb2; TGFB2
T1 sequence (looked up): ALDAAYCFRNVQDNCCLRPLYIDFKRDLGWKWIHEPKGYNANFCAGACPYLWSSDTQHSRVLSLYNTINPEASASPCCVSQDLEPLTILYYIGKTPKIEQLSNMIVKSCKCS

T2: transforming growth factor-beta 3 (TGF-β3) (UniProt P10600 301-412)
T2 construct: also called TGFb3; TGFB3
T2 sequence (looked up): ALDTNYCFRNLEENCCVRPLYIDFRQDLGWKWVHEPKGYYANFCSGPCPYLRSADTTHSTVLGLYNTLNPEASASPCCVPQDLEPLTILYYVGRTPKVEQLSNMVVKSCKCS

T3: Growth and Differentiation Factor 15 (GDF15) (UniProt Q99988 197-308, limits assumed)
T3 construct: also called MIC-1; MIC1
T3 sequence (looked up): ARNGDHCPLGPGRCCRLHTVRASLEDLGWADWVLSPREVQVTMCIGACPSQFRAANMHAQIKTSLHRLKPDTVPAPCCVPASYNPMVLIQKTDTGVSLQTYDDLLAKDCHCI


Legend:
Test in all cases: ELISA, peptide on streptavidin plate, ligand 100 ng/ml
[1] = molecular target: T1, transforming growth factor-beta 2 …
Experimental: (§1) Biotinylated synthetic peptide fragments from CLPTM1 (JPT peptides, Germany) were immobilized in a streptavidin 96 well plate (#15500 Pierce) at 1 μM in PBS over night at +4° C. Plate was then washed 4 times in 300 μl PBS with 0.05% tween-20 (wash buffer). The plate was then blocked with PBS 1% BSA and 0.05% tween-20 (blocking buffer) for 1.5 hours at room temperature, then washed 4 times in wash buffer. Ligands GDF15, TGFb1, TGFb2 and TGFb3 (Abcam) were added in blocking buffer at 100 ng/ml and incubated at room temperature for 2 hours. The plate was then washed 8 times in 300 μL wash buffer with 2× NaCl. An anti-GDF15 antibody was added at 1 μg/ml (R&D Systems, goat polyclonal) or a pan-specific anti-TGFb antibody (R&D Systems, mouse 1 D11), and the plate incubated in blocking buffer for 1 hour at room temperature followed by washing with 4×300 μl wash buffer. HAF017 anti-goat-HRP antibody (to detect the anti-GDF15 antibody) or Santa Cruz sc-2005 Goat anti-mouse-HRP (to detect the pan-specific anti-TGFb antibody) was added and the plate incubated for 1 hour in blocking buffer followed by a wash. TMB substrate was added and stopped after 15 minutes with H₂SO₄. OD 450-620 was measured in an ELISA reader.

[2] = molecular target: T2, transforming growth factor-beta 3 …
Experimental: as §1

[3] = molecular target: T4, transforming growth factor-beta 1 (TGF-β1) (UniProt P01137 279-390)
T4 construct: also called TGFb1; TGFB1
Experimental: as §1

[4] = molecular target: T3, Growth and Differentiation Factor 15 …
Experimental: as §1

T4 sequence (P01137 279-390 limits assumed): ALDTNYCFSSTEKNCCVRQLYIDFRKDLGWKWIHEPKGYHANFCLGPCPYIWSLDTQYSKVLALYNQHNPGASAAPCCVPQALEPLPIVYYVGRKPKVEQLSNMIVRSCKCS

Row | Binder | ELISA OD450 [1] [OD450] | ELISA OD450 [2] [OD450] | ELISA OD450 [3] [OD450] | ELISA OD450 [4] [OD450]
1 | LDQYVKFDAVSGDYYPIIYFG (also: biotinylated, site not given here, also called peptide 14) [CLPTM1 peptide fragment of SEQ ID NO: 21] | 0.019 | 0.065 | 0.152 | 0.14
2 | LMNLHVYISEHEHFTDFNATG (also: biotinylated, site not given here) [CLPTM1 peptide fragment of SEQ ID NO: 13] | 0.005 | 0.014 | 0.02 | 0.058
3 | RRRFQKTKNLLTGETEADPEG (also: biotinylated, site not given here) [CLPTM1 peptide fragment of SEQ ID NO: 18] | 0.002 | 0.004 | 0.002 | 0.021
4 | GSIYIHVYFTKSGFHPDPRQG (also: biotinylated, site not given here) [CLPTM1 peptide fragment of SEQ ID NO: 16] | 0.107 | 0.02 | 0.122 | 0.149
5 | SDGCYEHFAELDIPQSVQQNG (also: biotinylated, site not given here) [CLPTM1 peptide fragment of SEQ ID NO: 15] | -0.003 | 0.004 | 0.006 | 0.024
6 | SALFWEQHDLVYGDWTSGENG (also: biotinylated, site not given here) [CLPTM1 peptide fragment of SEQ ID NO: 14] | 0.002 | 0.02 | 0.022 | 0.034
7 | MIKRAEDYGPVEVISHWHPNG (also: biotinylated, site not given here) [CLPTM1 peptide fragment of SEQ ID NO: 19] | 0.002 | 0.004 | 0.006 | 0.028
8 | ITINIVDDHTPWVKGSVPPPG (also: biotinylated, site not given here) [CLPTM1 peptide fragment of SEQ ID NO: 20] | 0.005 | 0.068 | 0.011 | 0.098
9 | KALYRRLATVHMSRMINKYKG (also: biotinylated, site not given here, also called peptide 10) [CLPTM1 peptide fragment of SEQ ID NO: 17] | 1.01 | 0.046 | 0.913 | 0.197
10 | NDYWNLQKDYYPINESLASLG (also: biotinylated, site not given here) [CLPTM1 peptide fragment of SEQ ID NO: 22] | 0.005 | 0.025 | 0.017 | 0.038
11 | SGQVTSNGSIGRDPPAETQPG (also: biotinylated, site not given here) [CLPTM1 peptide fragment of SEQ ID NO: 9] | 0.001 | 0.001 | 0.002 | 0.009

Further lines, results first:

Row | ELISA OD450 [1] [OD450] | ELISA OD450 [2] [OD450] | ELISA OD450 [3] [OD450] | ELISA OD450 [4] [OD450] | Binder
12 | 0.006 | 0.019 | 0.01 | 0.023 | WQVIKGVLFRIFIIWAISSWG (also: biotinylated, site not given here) [CLPTM1 peptide fragment of SEQ ID NO: 29]
13 | 0.009 | 0.041 | 0.015 | 0.055 | RNLFPKDTLMNLHVYISEHEG (also: biotinylated, site not given here) [CLPTM1 peptide fragment of SEQ ID NO: 30]
14 | 0.025 | 0.018 | 0.043 | 0.22 | YPINESLASLPLRVSFCPLSG (also: biotinylated, site not given here, also called peptide 20) [CLPTM1 peptide fragment of SEQ ID NO: 27]
15 | 0.007 | 0.012 | 0.018 | 0.053 | STKSPWNFLGDELYEQSDEEG (also: biotinylated, site not given here) [CLPTM1 peptide fragment of SEQ ID NO: 24]
16 | 0.066 | 0.016 | 0.083 | 0.063 | PLRVSFCPLSLWRWQLYAAQG (also: biotinylated, site not given here) [CLPTM1 peptide fragment of SEQ ID NO: 23]
17 | 0.007 | 0.014 | 0.01 | 0.022 | YEQSDEEQDSVKVALLETNPG (also: biotinylated, site not given here) [CLPTM1 peptide fragment of SEQ ID NO: 25]
18 | 0.008 | 0.011 | 0.013 | 0.033 | LWRWQLYAAQSTKSPWNFLGG (also: biotinylated, site not given here) [CLPTM1 peptide fragment of SEQ ID NO: 26]
19 | 0.164 | 0.151 | 1.54 | 0.507 | GDYYPIIYFNDYWNLQKDYYG (also: biotinylated, site not given here, also called peptide 21) [CLPTM1 peptide fragment of SEQ ID NO: 28]
20 | 0.014 | 0.029 | 0.032 | 0.061 | FTDFNATSALFWEQHDLVYGG (also: biotinylated, site not given here) [CLPTM1 peptide fragment of SEQ ID NO: 31]
